Values belong to the molecule of their own block, whether it stands above or below them. Ends that are not written are not given here. carboxifluorescein = carboxyfluorescein
Legend:
[1] = molecular target: syntenin PDZ1–PDZ2 tandem (amino acids 107–275), wild type (human) (UniProt O00560); test: ITC; VP-ITC; Frizzled 7 peptide (1.0 mM) injected (32 x 8 μl) into PDZ1–PDZ2 tandem (30–60 μM); 10 mM Mes pH 7.0, 5 mM β-mercaptoethanol; binary sequential binding model
[2] = molecular target: T1, syntenin PDZ2 domain (residues 196–275), wild type (human, UniProt O00560 196-275); test: SPR; BIAcore T200, 25 °C; biotinylated Frizzled 7 19mer peptides (100 RU) immobilised on a streptavidin chip, His-tagged syntenin proteins as analytes; 10 mM HEPES pH 7.4, 150 mM NaCl, 0.005% Tween 20; equilibrium titration, apparent KD; without IP3; details: both partners purified
T1 construct: syntenin, PDZ2 domain, amino acids 196–275; also called PDZ2 wild type; source: ER2566 cells (pETM-11 vector), purified recombinant; not shown: His6, N-terminal, kept
T1 sequence (looked up): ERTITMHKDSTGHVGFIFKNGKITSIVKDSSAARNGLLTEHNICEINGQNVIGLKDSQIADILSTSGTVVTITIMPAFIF

[3] = molecular target: T2, syntenin PDZ1–PDZ2 tandem (amino acids 107–275), wild type (human, UniProt O00560 107-275); test: crystal structure; PDZ tandem co-crystallised with C4-PIP2 and the Frizzled 7 sixmer, molar ratio protein:lipid:peptide 10:23:23; 2.45 Å; details: both partners purified
T2 construct: syntenin, PDZ1–PDZ2 tandem, amino acids 107–275; also called PDZ tandem of syntenin; PDZ1–PDZ2 tandem wild-type; source: ER2566 cells (pETM-11 vector), purified; not shown: His6, N-terminal, kept
T2 sequence (looked up): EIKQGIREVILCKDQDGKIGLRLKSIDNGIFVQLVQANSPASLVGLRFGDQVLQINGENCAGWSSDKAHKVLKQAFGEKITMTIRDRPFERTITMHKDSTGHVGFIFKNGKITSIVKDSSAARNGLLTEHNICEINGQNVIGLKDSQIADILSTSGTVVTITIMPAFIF

[4] = molecular target: T1, syntenin PDZ2 domain (residues …); test: SPR; competition: PDZ2 wild type (30 μM) incubated with 0–4 mM 6mer Frizzled 7 peptide (KGETAV), then perfused over the Frizzled 7 peptide immobilised on a BIAcore streptavidin chip; equilibrium responses; details: both partners purified
[5] = molecular target: T2, syntenin PDZ1–PDZ2 tandem (amino acids …); test: SPR; as a3, but the syntenin protein pre-incubated with 0.5 mM Ins(1,4,5)P3 (IP3, PIP2 head group) before perfusion; apparent KD; details: both partners purified
[6] = molecular target: T1, syntenin PDZ2 domain (residues …); test: as above; details: both partners purified
[7] = molecular target: T3, syntenin PDZ2 domain (196–275) K214A (human, UniProt O00560 196-275, K214A); test: as above; details: both partners purified
T3 construct: syntenin, PDZ2 domain, amino acids 196–275, K214A; also called PDZ2 single mutant K214A; source: ER2566 cells (pETM-11 vector), purified; not shown: His6, N-terminal, kept
T3 sequence (looked up): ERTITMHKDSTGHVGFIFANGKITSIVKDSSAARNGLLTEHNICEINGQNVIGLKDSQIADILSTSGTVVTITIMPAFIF

[8] = molecular target: T4, syntenin PDZ2 domain (196–275) N215D (human, UniProt O00560 196-275, N215D); test: as above; details: both partners purified
T4 construct: syntenin, PDZ2 domain, amino acids 196–275, N215D; also called PDZ2 single mutant N215D; source: ER2566 cells (pETM-11 vector), purified; not shown: His6, N-terminal, kept
T4 sequence (looked up): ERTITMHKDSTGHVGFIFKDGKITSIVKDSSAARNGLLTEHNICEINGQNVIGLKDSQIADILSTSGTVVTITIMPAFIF

[9] = molecular target: T2, syntenin PDZ1–PDZ2 tandem (amino acids …); test: SPR; BIAcore T200, 25 °C; biotinylated Frizzled 7 19mer peptides (100 RU) immobilised on a streptavidin chip, His-tagged syntenin proteins as analytes; 10 mM HEPES pH 7.4, 150 mM NaCl, 0.005% Tween 20; equilibrium titration, apparent KD; without IP3; details: both partners purified
[10] = molecular target: T5, syntenin PDZ1–PDZ2 tandem (107–275) mutant K214A/K250A (human, UniProt O00560 107-275, K214A | K250A); test: as above; details: both partners purified
T5 construct: syntenin, PDZ1–PDZ2 tandem, amino acids 107–275, K214A and K250A; PDB 4Z33 holds the wild-type parent of the same limits; also called PDZ1–PDZ2 tandem mutant K214A/K250A; K214A/K250A mutant tandem; source: ER2566 cells (pETM-11 vector), purified; not shown: His6, N-terminal, kept
T5 sequence (looked up): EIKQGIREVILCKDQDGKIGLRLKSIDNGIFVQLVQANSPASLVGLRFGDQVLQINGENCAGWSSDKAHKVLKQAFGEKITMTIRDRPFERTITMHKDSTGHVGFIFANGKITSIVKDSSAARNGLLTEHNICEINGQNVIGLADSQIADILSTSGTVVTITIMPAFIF

[11] = molecular target: T6, syntenin PDZ2 domain (196–275) K250A (human, UniProt O00560 196-275, K250A); test: as above; details: both partners purified
T6 construct: syntenin, PDZ2 domain, amino acids 196–275, K250A; also called PDZ2 single mutant K250A; source: ER2566 cells (pETM-11 vector), purified; not shown: His6, N-terminal, kept
T6 sequence (looked up): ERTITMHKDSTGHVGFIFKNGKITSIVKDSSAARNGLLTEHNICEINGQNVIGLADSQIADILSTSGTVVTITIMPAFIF

[12] = molecular target: T7, syntenin PDZ2 domain (196–275) K214A/K250A (human, UniProt O00560 196-275, K214A | K250A); test: as above; details: both partners purified
T7 construct: syntenin, PDZ2 domain, amino acids 196–275, K214A and K250A; also called PDZ2 double mutant; PDZ2 mutant K214A/K250A; source: ER2566 cells (pETM-11 vector), purified; not shown: His6, N-terminal, kept
T7 sequence (looked up): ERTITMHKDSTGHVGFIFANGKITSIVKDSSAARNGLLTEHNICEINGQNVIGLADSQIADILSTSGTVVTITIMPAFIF

[13] = molecular target: T2, syntenin PDZ1–PDZ2 tandem (amino acids …); test: MST; as a7, in the presence of Ins(1,4,5)P3 head group (concentration not stated); fit of Hill's equation; details: both partners purified

KD of the first site (binary sequential binding model) [1]: 20.5 µM
KD of the second site (binary sequential binding model) [1]: 4.3 µM
Molecule: 8mer C-terminal peptide from Frizzled 7 (from UniProt O75084 567-574)

binding result [2]: binds
B1: Frizzled 7 K-5A mutant 19mer, biotinylated (SWRRFYHRLSHSSAGETAV) (peptide)
peptide: SWRRFYHRLSHSSAGETAV
modifications: also: biotinylated, position not given here
notes: Frizzled 7, last 19 residues with the lysine at position -5 (lysine 569) replaced by alanine; Immobilised on a streptavidin sensor chip; also called Frizzled 7 K-5A 19mer; source: synthetic peptide, GenScript

binding result [3]: binds
binding result [4]: binds
B2: C-terminal hexapeptide of Frizzled 7 (KGETAV) (peptide)
peptide: KGETAV
notes: Frizzled 7, C-terminal six residues; K-5 is lysine 569; also called Fz7(6mer); 6mer Frizzled 7 peptide

Kd [5]: 2 µM
Kd [6]: 5 µM
binding result [7]: binds
binding result [8]: binds
Kd [9]: 8 µM
binding result [10]: binds
Kd [2]: 32 µM
binding result [11]: binds
binding result [12]: binds
B3: Frizzled 7 wild-type 19mer, biotinylated C-terminal peptide (SWRRFYHRLSHSSKGETAV) (peptide)
peptide: SWRRFYHRLSHSSKGETAV
modifications: also: biotinylated, position not given here
notes: Frizzled 7, last 19 residues, part of the cytoplasmic domain; K-5 is lysine 569; Immobilised on a streptavidin sensor chip; also called 19 amino acids C-terminal peptide from Frizzled 7; Frizzled 7 19mer; source: synthetic peptide, GenScript

Kd [13]: 1.2 µM
B4: 6mer C-terminal peptide from Frizzled 7, N-terminally labelled with carboxifluorescein (peptide)
peptide: carboxifluorescein-KGETAV
notes: Frizzled 7, C-terminal six residues; also called Frizzled 7 peptide (microscale thermophoresis); source: synthetic peptide (chemically synthesized, JPT, Germany)
